Patent publication US8236764

Tested on: Human FV isolated from plasma
Sequence (chain, as listed by the source): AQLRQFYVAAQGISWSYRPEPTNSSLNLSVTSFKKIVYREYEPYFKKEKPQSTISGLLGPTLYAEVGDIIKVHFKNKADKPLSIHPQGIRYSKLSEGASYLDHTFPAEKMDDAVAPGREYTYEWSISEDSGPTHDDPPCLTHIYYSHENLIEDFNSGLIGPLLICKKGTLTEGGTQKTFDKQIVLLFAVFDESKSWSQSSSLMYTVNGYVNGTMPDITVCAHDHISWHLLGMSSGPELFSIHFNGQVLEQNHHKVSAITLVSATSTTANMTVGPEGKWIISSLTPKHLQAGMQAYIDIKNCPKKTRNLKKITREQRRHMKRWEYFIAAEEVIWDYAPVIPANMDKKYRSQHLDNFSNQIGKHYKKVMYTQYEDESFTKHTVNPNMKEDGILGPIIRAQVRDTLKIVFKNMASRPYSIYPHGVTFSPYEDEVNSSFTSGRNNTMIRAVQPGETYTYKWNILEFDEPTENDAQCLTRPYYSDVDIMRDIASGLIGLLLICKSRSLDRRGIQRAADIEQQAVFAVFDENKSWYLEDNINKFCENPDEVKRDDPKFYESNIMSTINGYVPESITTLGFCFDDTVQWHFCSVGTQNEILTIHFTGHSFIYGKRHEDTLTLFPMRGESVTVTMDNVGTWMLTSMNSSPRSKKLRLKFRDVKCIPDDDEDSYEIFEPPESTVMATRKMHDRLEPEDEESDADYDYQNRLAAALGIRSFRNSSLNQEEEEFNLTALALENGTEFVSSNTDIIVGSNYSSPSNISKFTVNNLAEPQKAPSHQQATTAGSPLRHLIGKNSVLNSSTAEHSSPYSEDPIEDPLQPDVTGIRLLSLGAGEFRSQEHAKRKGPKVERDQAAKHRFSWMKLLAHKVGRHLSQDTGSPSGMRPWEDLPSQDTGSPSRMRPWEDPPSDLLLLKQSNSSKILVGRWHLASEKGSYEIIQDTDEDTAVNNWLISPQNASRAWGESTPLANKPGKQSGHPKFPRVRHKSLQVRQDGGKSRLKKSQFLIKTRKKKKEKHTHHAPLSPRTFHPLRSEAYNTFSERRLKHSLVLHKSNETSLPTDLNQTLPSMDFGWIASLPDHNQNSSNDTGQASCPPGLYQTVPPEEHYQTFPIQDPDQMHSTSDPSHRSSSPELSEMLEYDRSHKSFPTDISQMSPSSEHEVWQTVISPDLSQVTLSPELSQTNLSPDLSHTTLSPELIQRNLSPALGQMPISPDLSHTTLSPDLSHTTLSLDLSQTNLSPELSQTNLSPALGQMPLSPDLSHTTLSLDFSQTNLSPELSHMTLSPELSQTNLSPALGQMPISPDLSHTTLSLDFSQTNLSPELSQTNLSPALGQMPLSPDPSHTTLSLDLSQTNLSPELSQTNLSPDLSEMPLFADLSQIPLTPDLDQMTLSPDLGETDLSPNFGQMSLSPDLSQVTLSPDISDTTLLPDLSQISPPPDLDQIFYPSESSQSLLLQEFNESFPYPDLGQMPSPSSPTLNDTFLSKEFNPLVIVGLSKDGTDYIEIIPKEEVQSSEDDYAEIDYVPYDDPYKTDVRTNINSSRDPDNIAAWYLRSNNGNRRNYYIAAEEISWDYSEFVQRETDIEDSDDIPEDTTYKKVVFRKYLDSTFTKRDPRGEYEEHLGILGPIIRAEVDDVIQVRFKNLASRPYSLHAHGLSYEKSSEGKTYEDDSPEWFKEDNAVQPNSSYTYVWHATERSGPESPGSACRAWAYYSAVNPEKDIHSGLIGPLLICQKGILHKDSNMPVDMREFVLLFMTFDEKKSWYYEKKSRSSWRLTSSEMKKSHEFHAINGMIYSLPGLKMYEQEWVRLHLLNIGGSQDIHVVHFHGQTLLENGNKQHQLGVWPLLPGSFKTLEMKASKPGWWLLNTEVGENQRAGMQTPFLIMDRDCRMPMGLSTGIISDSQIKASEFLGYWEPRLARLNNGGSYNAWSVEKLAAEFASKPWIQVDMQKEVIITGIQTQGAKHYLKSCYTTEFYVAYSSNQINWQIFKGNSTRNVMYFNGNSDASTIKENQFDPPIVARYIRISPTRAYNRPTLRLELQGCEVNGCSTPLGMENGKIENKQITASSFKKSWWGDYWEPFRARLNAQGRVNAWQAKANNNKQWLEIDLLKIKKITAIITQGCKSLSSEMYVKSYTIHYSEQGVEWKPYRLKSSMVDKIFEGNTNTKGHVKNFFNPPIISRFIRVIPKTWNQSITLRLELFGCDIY

Row | Substance | activation of FV (cofactor activity by PT-based assay using FV-deficient plasma; cleavage by SDS-PAGE)
1 | murine thrombin | murine thrombin activates human FV in a similar fashion to human thrombin
2 | human thrombin | murine thrombin activates human FV in a similar fashion to human thrombin
